Data: the supplement of paper PMC10899765

Columns and labels:
Details in all cases: 20 nM; 72 h
MCF10A [1] = assay: percent viability (nuclei count relative to siNT); higher = more viable cells
Method: (§1)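 After 72 h, cells were fixed and stained with Hoechst and anti-fibrillarin, and nucleoli per nucleus were counted with CellProfiler. Values are plate-adjusted percent effect for the one-nucleolus and 5+ nucleoli phenotypes, normalised to siNT (0%) and to the positive controls siNOL11 or siKIF11 (100%), as the mean of biological triplicates. Percent viability is the nuclei count relative to siNT.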

MCF10A [2] = assay: 5+ nucleoli phenotype percent effect (relative to siNT 0% and siKIF11 100%); higher = more cells with five or more nucleoli
Method: as §1

MCF10A [3] = assay: one-nucleolus phenotype percent effect (relative to siNT 0% and siNOL11 100%); higher = more cells with one nucleolus (ribosome biogenesis inhibition)
Method: as §1

Sequence | percent viability (MCF10A [1]) | 5+ nucleoli phenotype percent effect (MCF10A [2]) | one-nucleolus phenotype percent effect (MCF10A [3])
UUGUGGCUGGUCAUGAGGCUAA [hsa-miR-4474-3p] | 75.4% | 22.3% | 3.27%
GCAGAUCAGGACUGUAACUCACC [hsa-miR-1288-5p] | 48.5% | 31.1% | -14.5%
UUGCAUAGUCACAAAAGUGAUC [hsa-miR-153] | 116% | 83% | -31.1%
AGGACUGGACUCCCGGCAGCCC [hsa-miR-4515] | 37.2% | -14.9% | 15.9%
AACCUUGGCCCCUCUCCCCAG [hsa-miR-6813-3p] | 75.9% | 67.7% | -35.3%
UUUCAGAUAACAGUAUUACAU [hsa-miR-3942-3p] | 58.8% | -0.677% | -15.3%
GAGAGCAGUGUGUGUUGCCUGG [hsa-miR-2278] | 30.7% | -44.7% | 40.5%
UGAGGACAGGGCAAAUUCACGA [hsa-miR-5004-5p] | 36% | -12.8% | 10%
GAAUACGUCUGGUUGAUCC [hsa-miR-6082] | 186% | 67.8% | -25.8%
CCAAUAUUGGCUGUGCUGCUCC [hsa-miR-195-3p] | 142% | 27.5% | -16.1%
UCUAGAGGAAGCACUUUCUGUUU [hsa-miR-520g-5p] | 67.5% | 34.9% | -24.2%
UUUUGCAAUAUGUUCCUGAAUA [hsa-miR-450b-5p] | 108% | 14.4% | -22.9%
ACUGCAUUAUGAGCACUUAAAG [hsa-miR-20a-3p] | 138% | 43.3% | -23.3%
UGAGGGAGUAGGAUGUAUGGUU [hsa-miR-4510] | 16.6% | -17.6% | 13.3%
ACUGGACUUGGAGUCAGAAGGC [hsa-miR-378a-3p] | 66.7% | 13.6% | -2.19%
ACAGGCGGCUGUAGCAAUGGGGG [hsa-miR-3937] | 33.1% | -33.4% | 31.6%
CCACCGGGGGAUGAAUGUCAC [hsa-miR-181d-3p] | 40.6% | -15.9% | 24.4%
UUAGUGAAGGCUAUUUUAAUU [hsa-miR-3606-5p] | 109% | -9.93% | 6.89%
AAAAGUAAUUGCGGUCUUUGGU [hsa-miR-548j] | 85.9% | 17% | -14.6%
GUGGCUCUGUAGUAAGAUGGA [hsa-miR-8057] | 44.7% | 6.17% | 6.14%

Sequence | percent viability (MCF10A [1]) | 5+ nucleoli phenotype percent effect (MCF10A [2]) | one-nucleolus phenotype percent effect (MCF10A [3])
CUUCUGCCUGCAUUCUACUCCCAG [hsa-miR-6738-3p] | 51.1% | -13.9% | 12.5%
CGCAUCCCCUAGGGCAUUGGUGU [hsa-miR-324-5p] | 76.6% | 21.4% | -15.6%
AAUCUGAGAAGGCGCACAAGGU [hsa-miR-3200-5p] | 32.7% | -28.4% | 2.91%
GUGGUCUCUUGGCCCCCAG [hsa-miR-6848-3p] | 77.3% | 34.8% | -17.9%
AUAUACCUGUUCGGUCUCUUUA [hsa-miR-3144-3p] | 30% | -12.6% | -10.5%
UGAGUGCCGGUGCCUGCCCUG [hsa-miR-1909-5p] | 46.8% | -15.5% | 18.8%
CAUGCUAGGAUAGAAAGAAUGG [hsa-miR-3146] | 30.5% | -22.8% | 15.7%
AAAUGGGUGGUCUGAGGCAA [hsa-miR-4506] | 46.9% | -7.36% | 36.1%
ACAGCAGGCACAGACAGGCAGU [hsa-miR-214-3p] | 19.3% | -1.88% | 13.3%
UCCCACGUUGUGGCCCAGCAG [hsa-miR-662] | 128% | 35.3% | -20.4%
AUUCUAAGUGCCUUGGCC [hsa-miR-4263] | 37.3% | -1.39% | -0.791%
CAUCCGUCCGUCUGUCCAC [hsa-miR-4800-3p] | 67.4% | -3.64% | -2.39%
GAGCUUUUGGCCCGGGUUAUAC [hsa-miR-208a-5p] | 216% | 45.1% | -31%
AGUGGAUGAUGGAGACUCGGUAC [hsa-miR-3691-5p] | 13.1% | -12.7% | 34.9%
GUGCAUUGCUGUUGCAUUGC [hsa-miR-33b-5p] | 48.5% | 36% | -2.4%
AGACUGACCUUCAACCCCACAG [hsa-miR-6855-3p] | 75.7% | -20.8% | -4.32%
GGGAUUCUGUAGCUUCCU [hsa-miR-4320] | 28.6% | -18.6% | 50%
UCCCCUUCUGCAGGCCUGCUGG [hsa-miR-3127-3p] | 144% | 34.9% | -24.5%
CUAUACAACUUACUACUUUCCC [hsa-miR-98-3p] | 59.1% | 45.5% | -31.6%
AAAAGUAAUUGUGGUUUUGGCC [hsa-miR-548b-5p] | 131% | 36.5% | -24.3%

Sequence | percent viability (MCF10A [1]) | 5+ nucleoli phenotype percent effect (MCF10A [2]) | one-nucleolus phenotype percent effect (MCF10A [3])
CUUGGGGCAUGGAGUCCCA [hsa-miR-4260] | 37.7% | 9.54% | -6.43%
UAGCCCCCAGGCUUCACUUGGCG [hsa-miR-3943] | 19.1% | -18.2% | 8.41%
CCCUGAGACCCUAACCUUAA [hsa-miR-4324] | 84% | 38.6% | -27%
UGGGAGGGCGUGGAUGAUGGUG [hsa-miR-6785-5p] | 51.8% | 15% | -4.23%
UCAGGCCAGGCACAGUGGCUCA [hsa-miR-1972] | 30.6% | 17.7% | -4.54%
UCAGUAAAUGUUUAUUAGAUGA [hsa-miR-545-5p] | 175% | 38.8% | -24.2%
CUUAUCAGAUUGUAUUGUAAUU [hsa-miR-374a-3p] | 160% | 33% | -24.3%
CACUUAGCAGGUUGUAUUAUAU [hsa-miR-374c-3p] | 50.7% | 0.0114% | 0.51%
AGGAGGACAAGUUGUGGGAU [hsa-miR-7154-3p] | 7.01% | -9.57% | 39.7%
UUGCUAAGUAGGCUGAGAUUGA [hsa-miR-4639-5p] | 22.7% | -11.6% | 11.8%
GUGGGUACGGCCCAGUGGGGGG [hsa-miR-1225-5p] | 94.3% | 64.9% | -23.1%
CUGGCCCUCUCUGCCCUUCCGU [hsa-miR-328] | 64% | 47.4% | -8.63%
CCCUUGGGUCUGAUGGGGUAG [hsa-miR-3189-3p] | 25.3% | -6.22% | 15.4%
ACGCCCUUCCCCCCCUUCUUCA [hsa-miR-1249] | 85.3% | 29.3% | -13.3%
GAAGAUGGACGUACUUU [hsa-miR-4426] | 28.5% | -32.9% | 31.4%
GCUCGGACUGAGCAGGUGGG [hsa-miR-3917] | 57.6% | 32.5% | -20.1%
UGGACUGCCCUGAUCUGGAGA [hsa-miR-1288] | 33% | 2.11% | 7.88%
UGUUCUCUUUGCCAAGGACAG [hsa-miR-2117] | 56.1% | 4.15% | -0.405%
UAUUGCACAUUACUAAGUUGCA [hsa-miR-32-5p] | 123% | 9.82% | -7.37%
